Measured values published in US20180258163A1 (Chugai, published 2018).

Columns and labels:
Assay in all cases: SPR, Ab captured on Protein L, 20C
soluble human FcγRIIIa = biological target: T1, soluble human FcγRIIIa (human, UniProt P08637 17-208, limits assumed)
T1 construct: soluble His-tagged form; also called hFcγRIIIa
Procedure: (§1) Soluble FcγRIa and FcγRIIIa in both human and cynomolgus monkey were produced in the form of His-tagged molecules by methods known to those of ordinary skill in the art. An appropriate amount of rProtein L (BioVision) was immobilized onto the Sensor chip CM4 (GE Healthcare) by the amine coupling method and antibody of interest was captured. Next, soluble FcγRIa or FcγRIIIa was injected with a running buffer (used as a reference solution), and was made to interact with the antibodies captured onto the sensor chip. HBS-EP+ (GE Healthcare) was used as the running buffer, and HBS-EP+ was also used to dilute the soluble FcγRIa or FcγRIIIa. To regenerate the sensor chip, 10 mM glycine-HCl at pH 1.5 was used. All measurements were carried out at 20° C.

[1] = biological target: T2, soluble cynomolgus monkey FcγRIIIa (cynomolgus monkey, UniProt Q8SPW2 17-208, limits assumed)
T2 construct: soluble His-tagged form; also called cynoFcγRIIIa
Procedure: as §1

soluble human FcγRIa = biological target: T3, soluble human FcγRIa (human, UniProt P12314 16-292, limits assumed)
T3 construct: soluble His-tagged form; also called hFcγRIa
Procedure: as §1

Measured: binding result

T2 sequence (Q8SPW2 17-208 limits assumed): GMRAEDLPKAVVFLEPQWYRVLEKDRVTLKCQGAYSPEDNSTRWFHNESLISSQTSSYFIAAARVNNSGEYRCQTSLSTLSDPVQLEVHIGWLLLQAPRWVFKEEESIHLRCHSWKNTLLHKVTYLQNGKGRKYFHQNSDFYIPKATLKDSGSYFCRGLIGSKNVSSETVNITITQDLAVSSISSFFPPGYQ
T3 sequence (P12314 16-292 limits assumed): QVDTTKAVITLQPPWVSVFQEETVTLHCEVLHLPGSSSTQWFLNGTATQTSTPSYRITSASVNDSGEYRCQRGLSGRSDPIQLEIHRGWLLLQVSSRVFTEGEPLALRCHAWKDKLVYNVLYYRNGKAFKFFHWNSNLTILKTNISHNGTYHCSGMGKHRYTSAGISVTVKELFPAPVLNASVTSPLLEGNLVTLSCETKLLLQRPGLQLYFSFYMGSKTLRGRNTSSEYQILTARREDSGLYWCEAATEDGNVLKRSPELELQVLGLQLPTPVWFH
T1 sequence (P08637 17-208 limits assumed): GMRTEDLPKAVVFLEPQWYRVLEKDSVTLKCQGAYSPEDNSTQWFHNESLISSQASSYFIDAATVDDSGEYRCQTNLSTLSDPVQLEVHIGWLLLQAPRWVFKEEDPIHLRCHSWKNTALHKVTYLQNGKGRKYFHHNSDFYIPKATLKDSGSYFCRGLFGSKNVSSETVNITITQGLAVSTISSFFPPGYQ

B1: H1009/L395-F1974m (antibody)
heavy: QVQLVESGGGLVQPGGSLRLSCAASGFTFSDYYLSWVRQAPGKGLEWVGLIRNKDNYHTPEYSASVKGRFTISRDDSKNSLYLTMSDLKTEDTAVYYCARENHRYDVELAYWGQGTLVTVSSASTKGPSVFPLAPSSKSTSGGTAALGCLVKDYFPEPVTVSWNSGALTSGVHTFPAVLQSSGLYSLSSVVTVPSSSLGTQTYICNVNHKPSNTKVDKKVEPKSCDKTHTCPPCPAPELRRGPSVFLFPPKPKDTLMISRTPEVTCVVVDVSHEDPEVKFNWYVDGVEVHNAKTKPREEQYNSTYRVVSVLTVLHQDWLNGKEYKCKVSNKGLPSSIEKTISKAKGQPREPQVYTLPPSREEMTKNQVSLTCLVKGFYPSDIAVEWESNGQPENNYKTTPPVLDSDGSFFLYSKLTVDKSRWQQGNVFSCSVLHEALHAHTTRKELSLSP
light: DIQMTQSPSSLSASVGDRVTITCRASEIIYSYLAWYQQKPGKAPKLLIYKAKTHADGVPSRFSGSGSGTDFTFTISSLQPEDIATYYCKHHFGFPRTFGQGTKVEIKRTVAAPSVFIFPPSDEQLKSGTASVVCLLNNFYPREAKVQWKVDNALQSGNSQESVTEQDSKDSTYSLSSTLTLSKADYEKHKVYACEVTHQGLSSPVTKSFNRGEC
notes: copies: 2 + 2
no binding: all assays above
